Measured values taken from IntAct's records for PubMed 20494986.

B1: Type 3 secretion system chaperone PscE (Pseudomonas aeruginosa (strain ATCC 15692 / PAO1 / 1C / PRS 101 / LMG 12228)), Q9I317 (parent)
chain: MMTALETRLSVADGTHAAALRQRLQAALAECRRELARGACPEHFQFLQQQARALEGGLGILSQLTED
partner: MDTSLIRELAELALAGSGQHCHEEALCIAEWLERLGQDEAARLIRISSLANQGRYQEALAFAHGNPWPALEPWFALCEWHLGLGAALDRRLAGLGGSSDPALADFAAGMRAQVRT
B2: Type 3 secretion system chaperone PscG (Pseudomonas aeruginosa (strain ATCC 15692 / PAO1 / 1C / PRS 101 / LMG 12228)), P95435 (parent)
chain: B1 partner
partner: B1 chain

Variants of: B1
Details: with pscg_pseae pscG, P95435

| Variant | effect of a mutation on the interaction |
| --- | --- |
| G57D | disrupting interaction |
| L20S | decreasing interaction |

Variants of: B2
Details: with psce_pseae pscE, Q9I317

| Variant | effect of a mutation on the interaction |
| --- | --- |
| L5S | decreasing interaction |
| L5S;L9S | decreasing interaction |
| L9S | decreasing interaction |
| I28S | decreasing interaction |
| I28S;W31S | decreasing interaction |
